Experimental data: the supplement of paper PMC12636428

System: Saccharomyces cerevisiae
Assay: transcriptional activation domain activity (GFP:mCherry ratio, weighted mean of sorted bins, harmonized to initial dataset scale) (arbitrary fluorescence ratio units); higher = stronger transcriptional activation
Details: beta-estradiol 1 µM; induction time 4 h
Procedure: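 53-aa protein tiles (fungal proteins plus yeast TF control tiles) fused C-terminally to a DBD-estrogen-binding domain-mCherry synthetic TF, integrated in S. cerevisiae (URA3 locus) with a GFP reporter. Cells were induced with 1 uM beta-estradiol for 4 h at 30 C, FACS-sorted into 8 bins by GFP:mCherry ratio and barcodes sequenced. Activity is the read-weighted mean bin fluorescence (GFP:mCherry), averaged over barcodes (median 12); tiles under 50 reads were discarded. New active-learning values were harmonized by linear fit onto the scale of the initial (Hummel et al.) dataset. The assay saturates at low and high signal.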

| Sequence | transcriptional activation domain activity |
| --- | --- |
| AAGPGNNDLDDTDTDNQQFFLSDMNLNGSSVFENVFDDDDDDDDVETHSIVHS | 28900 |
| MCLSFFVFLLYIYQITFSYLLSIMSQLELCRDCFFGPLALLLVIVILSSLCMY | 69700 |
| MPVLFVFFSSFHSFIFLFFFYYGWLKVVIQVVMRLWGYKSLVGFFFLHGLLVC | 66500 |
| GKGIGGFNCVAASLGVVQVGMQWSCFAVILLLFLIYFPSASSLGSPATTPTGT | 36400 |
| RDKKKARAKGGAGAAGGEKKAEGAAAGDAAAAADGEDEEREGKRRKIARAAEG | 42200 |
| RVVYVSCNVHTQARDVGVLVRGEVEDVAANSNNTNMSTTTKNKTGGGVRYEIE | 23600 |
| VLRWGDTNTLPFVHIMMVFIHKMAQYAAAMSYLEQVFPWKLTMVMLNYHLTSC | 68500 |
| LFSCCCLLRTLGRFLLFIIFFPSLSTCSFFYFLVLFLFSFQTYFLLYLYLLSI | 43800 |
| LNVQLVYLIHSVLSIVIDFTFKRVEGDMDEWVVSGFSDRFERRITFARLYCNK | 49000 |
| PNIILPLNPCRSGEFCELYPSAANLWAMFLHLILFCMQLPFILSIPFWLLFPV | 52900 |
| GHERERGSGREKRGGERDATGRRERDRESGRESRESRESSRRERGSRDEGRRD | 39800 |
| RRRFRNAKYFVHFIQLVRLLNICLQFEISNAEIEEVRVGFIAWVRRYEELYYQ | 42800 |
| FPFFLSSLFFFLPFFSFFPFFLSSLFLLLFFSFSSSSYQTFSLREQFFHLFFT | 43500 |
| SFPIEGLYCLIKSLLKLKNLSLHGKIWWGDLKMLLPLLSKLDFWGIGELLLFD | 67000 |
| SSQPTKKPTPTTTTTTTTTTTTTTTTTTTTTEKPHTTHHTTHTTTTTTTKKAE | 36700 |
| KFFVRHQHKLYYVILSLGRFNLHNLSFTYLFTAPRVRYRWLEIFGICVFFTWY | 55900 |
| LLYCNQIYLICPYVVNNKVQRQVSPRDMLIVLEAALKITSIYKILTYVYFENI | 58700 |
| AEDSDASMDDAPAPKEAAKKAAPVEAGSDSESDSEAEKKKKKAAKKSKKEVVP | 22600 |
| GEASAEKTKKRSRASKGGEDGKKKKSKEARVESNGANGHAGGDAAAAAAAEQQ | 30400 |
| DGNNSKPLSPGWTDQTAYNAFGITTGMFNTTTMDDVYNYLFDDEDTPPNPKKE | 61500 |
| MKLMLSLYLLRMIFSLLVFFLLSGNVVATLFGFSMCFLIRFGWCCVLSYVLSF | 68500 |
| MDGVLKLPFLSFLFPFFLFFSSPPLFSPCFFPLFLSFFAVIAFFPFLCFCLPV | 29300 |
| MYGLVFLLPLFCSLLLFLFCFCCLSPRPTWGLFVSIELFLQARDGLVNWLLAF | 50100 |
| PINAAISNLMLGMLLFCGSLYTLVTFLPIFHSNCPYYTPLSSPWWRILRALGV | 46000 |

| Sequence | transcriptional activation domain activity |
| --- | --- |
| MSYIRSCLSFSPFFSFLFLFLPFFFLSFLPFSMCFLCKAFECLFVGGIKHMEH | 37400 |
| IKKGAASPSKKGGRGSAKAKKEESDDEDVKPAKKAKGAAAAKGKPKGKALKKE | 24200 |
| GERGRGGEEERRGRGRGRGREEREREKERRERERRRRREEEEERGEEERRGRR | 29400 |
| LWTCLLITLILPSPLFSSLFFPSPLFSFLLCLFFTFYLSFPSLFLSCPPPFAG | 51800 |
| GELQFCYITGMVLGNLACMEQWGNIVRVIFRAFRLALDSPVFFRKVIQAIHTQ | 80700 |
| ERKEAKEQTRRETESKARRGADKEGSEENREDEEGEKKERTSESTDKQKSRRT | 33700 |
| VHEQLEVALRRWRISSIMEGTRVRDVLIRLPLAHSFASLSSKVNILLHEMLFE | 45700 |
| LTYRVYIMGIGIWMTYLGIGWFLCIILPFLFRFCRLMFWWRKLCFLQALFFFF | 62200 |
| EGEYKTLATDDLGNILNLNYGETNEVIMNEINDLNLPLGPLSDEKSVKVSTFS | 84800 |
| MSWPFPFFFLLFRLFLSLFRGGCFWVQIFVFIPEYLVYSILFSFFFTVIYLFV | 40400 |
| MHFAVKVKMQLFFFIFSLTLFFFLWYFFFFFPVVYGVFSSGVLGVFFSLFSFF | 66200 |
| AAEGGDSVAKSSPAKPKQSKQSKKRPRDEDGEGAGEAPASKKQPKAKAKAAKA | 26100 |
| RYEAQGGGYKDTGDNKNKAKKGTPERKTKEDGKEEEEKGDKKEEAKKEEGKKE | 22800 |
| GCRKDQRARRRRSPALANRPEMKGVCLKTGITKPKKPNSGERKTARIRLSSGR | 38900 |
| MISWLLCFFDFRGDFLYGVLFFCTIFCFAVFGFFFFLQPSTFSFTIFFLCFFS | 31000 |
| AGQILANQVIITNLTNFIYSITPLPVRYYYLLEMLKFIFFLFMLGMLPLALCA | 52400 |
| MGSDPFGGLNLFSTALFPLYLYCLTLDPPNYSNWLIFLSQHFLFSGLFRVLCF | 56600 |
| MTLCTFFGCLLTAYSPLLSIFFLYIAPNAQYVLLMVASAFFCLLALLLSSVIW | 55000 |
| VRNNSENASHNNETGPIETELAQTISNEFWTAYNLGWEELMSQPDYKYLFDTQ | 117000 |
| NNLNITGYEWISSELRDDALLSAVTLQGHHLGHTQPQEISLEENSNVVSGEEH | 59600 |
| ETVEEPAPKRGKATRTKAAEPAPVEEAPKPAAKPRGRAAAKKATEPAAEAEVE | 35500 |
| LLTEHFLLRVFAVFTAYIVELWMLKVAYLGYYFQLRQYLSEKSRMIYIGTCVY | 63300 |
| MLHSLYVVAISKSGILSSFVNPTTTTVHYTPFEISMIGYFNLVLIWLKLLILW | 61300 |
| PTQEVLRFCKRELMHKLWNLLMDDDFLHAYMHGIVVCCGDGVLRRLFPRIFTY | 44400 |

| Sequence | transcriptional activation domain activity |
| --- | --- |
| MPSCFCFIPEFTALSLPPLCSLFWFRLCTWLFLRMLCTRIYLFCSWFFCLTYF | 56400 |
| SIPPPPPPPAPPGPSRGGPPPPPPPPPPGGRGGAPPPPPPPPGGRAPPAPPAP | 22100 |
| RHRRHRRSRSRDREGGRDRGRDGRRDERREERKVERRNEGRDEGRVEGRGRDA | 40000 |
| CTVVFLACTVVYGFMVVTSLLFHLSGFLFHVTTTFPFFFFFFFTLLFFLLHTF | 38000 |
| MGTLLFVFMYYGWAFFLDYFIWCFVVSLCFWYKVCLAVLLLAFDVYCHLWCMI | 60200 |
| KARKRTRERKKEKEGRARTKGEGDRYEGRKFEISGTVEVKRERCEGTRRTKPK | 9070 |
| RPWRWSFGVYVLCRTLALGGIISAFVGFSPFNEFHCDVWLRFLLVFSWFAIAS | 66600 |
| RLRVLYSAWQLHVDGKVRIGTLAIIGSFKELRYLGGKRTRRCGLVALLLLSAY | 50700 |
| NPIIRVRGIGLSLTSICFLHCYWILAQVVYPIGQSLPVILAYDIQYFFMGLWF | 56900 |
| DSHYILQGVDAAIQILKLCRVCLHPRAVLSYLPHSFYLYLCYAAVFLLKVVFV | 61700 |
| SDNQPDFVDFQELLDNDTLGNDLLETTAVLKEFELLHDDSVSATATSNEIDLS | 115000 |
| IAHRYLVGYVYVRTHSQTGGLVYIWLLKRLGSLLSLQPILLGLIFLSRHLWIE | 55000 |
| PLSLLIYFLEWIGPLNLWIRCLCKTSLIEFYFRLLVILLMPFLFVFWHIIGLG | 40100 |
| KGGEKKEGEEQNGGGEKKGGEEQKGGGEKKGRWVEEKGGEEQKGGAIAAAGQN | 14200 |
| WWGDTYFLFFPCLMYKFHVGFCLYMKWEMLYLLLFGRACDVFIMIGVVAVHVL | 62400 |
| GPYDDIFMGGIYGIKHLYELEDGLTILWHDGIHFSPNRVFRLLIAFLLRVVGT | 61900 |
| IGYFVPTTKFHGPARFGYLEYADHIFRLYEILDWRVFVGISLFLHWVFSYSHT | 39100 |
| FDLDDQYLANVVAEDRDASVLVQMSIIVQEGEHSHKSEQEPHISLLVLRRKRL | 40200 |
| VTCGLLKVAIDLINHFPLFALVLRVKDPRRLPGSTYFRVIHDKGQTILMLEVD | 40300 |
| MASVVCCTELWCLFGLDVCFFPFSLFALPLVLSPSLFPLSSLSFIIFLFFPVS | 54700 |
| YKVPTASLKDGCLCVNVASEKNFEKDVREKASIYLPSVGKVTILMLLRNLLRL | 55000 |
| LYILLVFPILLLMMLHSLVTFLYVRAIDPLYGSVPINLHLDKIVWVATFAGAF | 63200 |
| HQLYTDWLYLWWIAYTNKMHGRIYIILKESLKNLPIFGWGAQFYNFIFLCRNW | 56400 |
